We go through 37 molecules from US20090280138A1 (OXFORD BIOMEDICA UK, published 2009).

The labels stand for the following.
B1: 5T4 9-mer peptide 22 SSAPFLASA (peptide)
peptide: SSAPFLASA
notes: also called Peptide No 22
B2: 5T4 9-mer peptide 41 NLTEVPTDL (peptide)
peptide: NLTEVPTDL
notes: also called Peptide No 41
B3: 5T4 9-mer peptide 48 NLFLTGNQL (peptide)
peptide: NLFLTGNQL
notes: also called Peptide No 48
B4: 5T4 9-mer peptide 96 QNRSFEGMV (peptide)
peptide: QNRSFEGMV
notes: also called Peptide No 96
B5: 5T4 9 mer peptide 147 (NNPWVCDCH) (peptide)
peptide: NNPWVCDCH
B6: 5T4 9 mer peptide 8 (RLRLARLAL) (peptide)
peptide: RLRLARLAL
B7: 5T4 9 mer peptide 65 (RLDEVRAGA) (peptide)
peptide: RLDEVRAGA
B8: 5T4 9 mer peptide 100 (VVAALLAGR) (peptide)
peptide: VVAALLAGR
B9: 5T4 9 mer peptide 109 (LASNHFLYL) (peptide)
peptide: LASNHFLYL
B10: 5T4 9 mer peptide 125 (LTYVSFRNL) (peptide)
peptide: LTYVSFRNL
B11: 5T4 9 mer peptide 198 (HMEGYHYRY) (peptide)
peptide: HMEGYHYRY
B12: 5T4 9 mer peptide 177 (QTSYVFLGI) (peptide)
peptide: QTSYVFLGI
B13: 5T4 9 mer peptide 161 (LTCAYPEKM) (peptide)
peptide: LTCAYPEKM
B14: 5T4 9 mer peptide 43 (VPTDLPAYV) (peptide)
peptide: VPTDLPAYV
B15: 5T4 9-mer peptide 102 LLAGRALQG (peptide)
peptide: LLAGRALQG
notes: also called Peptide No 102
B16: 5T4 9-mer peptide 125 (peptide)
peptide: LTYVSFRNL
B17: 5T4 9-mer peptide 186 (peptide)
peptide: LLVLYLNRK
B18: 5T4 9-mer peptide 142 (peptide)
peptide: GLPHIRVFL
B19: 5T4 9-mer peptide 161 (peptide)
peptide: LTCAYPEKM
B20: 5T4 9-mer peptide 198 (peptide)
peptide: HMEGYHYRY
B21: 5T4 9-mer peptide 109 (peptide)
peptide: LASNHFLYL
B22: 5T4 9-mer peptide 100 (peptide)
peptide: VVAALLAGR
B23: 5T4 9-mer peptide 43 (peptide)
peptide: VPTDLPAYV
B24: 5T4 9-mer peptide 26 AVSAQPPLP (peptide)
peptide: AVSAQPPLP
notes: also called Peptide No 26
B25: 5T4 9-mer peptide 139 TLAELQGLP (peptide)
peptide: TLAELQGLP
B26: 5T4 9-mer peptide 46 AYVRNLFLT (peptide)
peptide: AYVRNLFLT
notes: also called Peptide No 46
B27: 5T4 9-mer peptide 29 PLPDQCPAL (peptide)
peptide: PLPDQCPAL
notes: also called Peptide No 29
B28: 5T4 9-mer peptide 64 GSRLDEVRA (peptide)
peptide: GSRLDEVRA
notes: also called Peptide No 64
B29: 5T4 9-mer peptide 6 AGDGRLRLA (peptide)
peptide: AGDGRLRLA
notes: also called Peptide No 6
B30: 5T4 9-mer peptide 14 GWVSSSSPT (peptide)
peptide: GWVSSSSPT
notes: also called Peptide No 14
B31: 5T4 9-mer peptide 56 FARRPPLAE (peptide)
peptide: FARRPPLAE
notes: also called Peptide No 56
B32: 5T4 9-mer peptide 108 LELASNHFL (peptide)
peptide: LELASNHFL
B33: 5T4 9-mer peptide 81 AFSGSNASV (peptide)
peptide: AFSGSNASV
notes: also called Peptide No 81
B34: 5T4 9-mer peptide 116 AQLPSLRHL (peptide)
peptide: AQLPSLRHL
B35: 5T4 9-mer peptide 192 KWMHNIRDA (peptide)
peptide: KWMHNIRDA
notes: also called Peptide No 192
B36: 5T4 9-mer peptide 79 LSPFAFSGS (peptide)
peptide: LSPFAFSGS
notes: also called Peptide No 79
B37: 5T4 9-mer peptide 149 VCDCHMADM (peptide)
peptide: VCDCHMADM
notes: also called Peptide No 149

The target in one assay is T1, MHC class I molecule HLA-A*0201 (iTopia plate-bound monomer) (biotin (bound to streptavidin-coated plate)).
T1 construct: also called A2
In words: iTopia off-rate assay, 37 C; fit R^2 0.98. The method, then: (§1) The 9 mers were tested for Peptide Binding, Off Rate and Affinity using iTopia Epitope Discovery System in accordance with the manufacturer's instructions. Briefly, 96 well microtitre plates coated with MHC molecules representing different MHC alleles are used to identify candidate peptides. […] Determinations are performed in duplicate using an ELISA plate reader and included allele specific positive controls.
(§2) A one-phase exponential decay curve, with a plateau given equal to 0, was generated using GraphPad Prism® software, which calculated the t1/2 and goodness-of-fit, as measured by r², for each peptide.
Consider B1, for which the t½ half life turned out to be 1.3 h.

B2 came in with a t½ half life of 1.4 h.

On to B3, for which the t½ half life amounted to 0.5 h.

The target in the next assay is T1, MHC class I molecule HLA-A*0201 (iTopia …). Put plainly: iTopia off-rate assay, 37 C; fit R^2 0.87. As to the method: as §1, §2
B4 displayed a t½ half life of 2.4 h.

The target in the next assay is T2, MHC class I molecule A*0301 (biotin (bound via biotin to streptavidin-coated plates)).
T2 construct: also called A3; HLA-A3
In words: iTopia affinity assay (ED50), peptide titration on plate-bound MHC. The method, then: as §1
(§3) Dose-response curves of peptide binding to MHC were prepared by peptide titration to determine the ED50 measurement for each peptide. Values for the concentrations tested (in duplicate) were obtained as a percentage of the highest (9000×) concentration of the positive control peptide. A dose-response curve was generated using GraphPad Prism® curve fitting software, which automatically calculated the ED50 (in Molarity) for each peptide.
Usually EC50 stands for the midpoint of the concentration-response curve. A low value points to higher potency in that assay. The molecule B5 returned an EC50 of 3 µM.

Molecule B6 came in with an EC50 of 0.4 µM.

The molecule B7 showed an EC50 of 40 µM. Compared with the last molecule, the EC50 is about 100-fold higher.

Regarding B8, the EC50 worked out at 10 µM.

B9 returned an EC50 of 30 µM.

For the molecule B10, a half-maximal response (EC50) required 3 µM.

The target of another assay is T3, MHC class I molecule A*0101 (biotin (bound via biotin to streptavidin-coated plates)).
T3 construct: also called A1; HLA-A1
The assay is described as above. As to the method: as §1, §3
Turning to B11, the concentration giving a half-maximal response (EC50) was 3 µM.

With B12, the response was half-maximal at 20 µM (EC50).

With B13, the EC50 was 20 µM.

As to B9, a half-maximal effect (EC50) was put at 20 µM.

For the molecule B10, the EC50 came to 3 µM. Compared with the last molecule, the EC50 is about 6.7-fold lower.

As for B14, the EC50 came to 20 µM.

A further assay has as its target T4, MHC class I molecule B*0702 (biotin (bound via biotin to streptavidin-coated plates)).
T4 construct: Methods name B*0702 as the allele used; also called B7; HLA-B7
Described as above. As to the method: as §1, §3
B6 displayed an EC50 of 0.02 µM.

Take B7: the half-maximal effective concentration (EC50) was 20 µM.

Molecule B10 yielded an EC50 of 3 µM. Compared with the last molecule, the EC50 is about 6.7-fold lower.

The next assay addresses T5, MHC class I molecule A*0201 (biotin (bound via biotin to streptavidin-coated plates)).
T5 construct: also called A2; HLA-A2
Described as above. The method, then:
as §1, §3
As for B6, a half-maximal effect (EC50) was put at 0.06 µM. This counts as double-digit nanomolar.

B7 yielded an EC50 of 20 µM. This EC50 is about 330-fold higher than that of the molecule before.

For B13, the EC50 was determined as 10 µM.

The molecule B9 came in with an EC50 of 0.6 µM.

For B10, the EC50 came to 0.4 µM.

B14 gave an EC50 of 20 µM.

The target of a further assay is T1, MHC class I molecule HLA-A*0201 (iTopia …). Put plainly: iTopia off-rate assay, 37 C; fit R^2 0.9. As to the method: as §1, §2
Consider B15, for which the t½ half life was 1.4 h.

In a further assay the target is T6, MHC class I allele A*0201 monomer (human, biotinylated, bound to streptavidin-coated plate).
T6 construct: also called A2; HLA-A2
In words: iTopia, multiparametric iScore. Summed up: (§4)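 9-mer peptides were tested on plates coated with MHC molecules, measuring binding, off-rate and affinity by ELISA in duplicate with allele-specific positive controls.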
Take B16: the iScore was found to be 1.11.

As for B17, the iScore is 0.386.

The molecule B18 showed an iScore of 1.89.

Turning to B19, the iScore was 0.158.

Molecule B20 gave an iScore of 0.24.

The target of the next assay is T7, MHC class I allele A*0301 monomer (human, biotinylated, bound to streptavidin-coated plate).
T7 construct: also called A3; HLA-A3
In words: iTopia, multiparametric iScore. In a few lines: as §4
On to B16, for which the iScore was 0.157.

B17 returned an iScore of 0.372.

As to B18, the iScore was 0.319.

In turn, B19 returned an iScore of 0.

For B20, the iScore was determined as 0.189.

In another assay the target is T8, MHC class I allele A*0101 monomer (human, biotinylated, bound to streptavidin-coated plate).
T8 construct: placeholder peptide and b2M removed, then reconstituted with test peptide and fresh b2M; also called A1; HLA-A1
Put plainly: iTopia, multiparametric iScore. In a few lines: as §4
For the molecule B16, the iScore was 0.522.

B17 yielded an iScore of 0.

On to B18, for which the iScore was 0.

B19 displayed an iScore of 0.139.

The molecule B20 registered an iScore of 0.357.

The next assay deals with T9, MHC class I allele B*0702 monomer (human, biotinylated, bound to streptavidin-coated plate).
T9 construct: also called B7; HLA-B7
In words: iTopia, multiparametric iScore. Summed up: as §4
As for B16, the iScore came to 0.574.

B18: the iScore was 0.075.

As for B19, the iScore was 0.

In turn, B20 had an iScore of 0.

Another assay addresses T6, MHC class I allele A*0201 monomer. Put plainly: iTopia, multiparametric iScore. This is another data set of the same source. As to the method:
as §1
(§5) Finally, multiparametric analysis is performed on the results from these assays and an iScore is generated. The iScore represents a measure of the overall quality of peptide-MHC binding, enabling candidate peptides to be ranked in order of binding quality and allowing rational prioritisation of peptides for functional cellular follow-up studies.
Turning to B16, the iScore is 1.11.

On to B17, for which the iScore amounted to 0.386.

Molecule B18 had an iScore of 1.39.

B21 came in with an iScore of 0.337.

The target of the next assay is T7, MHC class I allele A*0301 monomer. In words: iTopia, multiparametric iScore. This is another data set of the same source. As to the method:
as §1, §5
B16: the iScore turned out to be 0.157.

The molecule B17 displayed an iScore of 0.375.

Turning to B18, the iScore was determined as 0.319.

For B22, the iScore worked out at 0.125.

Regarding B20, the iScore worked out at 0.189.

The molecule B21 registered an iScore of 0.224.

The next assay has as its target T8, MHC class I allele A*0101 monomer. Put plainly: iTopia, multiparametric iScore. The source holds these as a separate data set. As to the method:
as §1, §5
In the case of B16, the iScore was found to be 0.522.

On to B23, for which the iScore amounted to 0.098.

For B19, the iScore came out at 0.139.

B20 showed an iScore of 0.357.

For B21, the iScore is 0.12.

The target in the next assay is T9, MHC class I allele B*0702 monomer. Put plainly: iTopia, multiparametric iScore. The source holds these as a separate data set. As to the method: as §1, §5
Take B16: the iScore stood at 0.574.

Another assay has as its target T1, MHC class I molecule HLA-A*0201 (iTopia …). Put plainly: iTopia off-rate assay, 37 C; fit R^2 0.89. The method, then: as §1, §2
For the molecule B24, the t½ half life is 1.7 h.

The molecule B25 showed a t½ half life of 0.7 h.

The target is the same in another assay. Put plainly: iTopia off-rate assay, 37 C; fit R^2 0.77. The method, then:
as §1, §2
Regarding B26, the t½ half life was 6.8 h.

On to B27, for which the t½ half life was found to be 2.8 h.

The target is the same in another assay. In words: iTopia off-rate assay, 37 C; fit R^2 0.94. As to the method: as §1, §2
In turn, B28 came in with a t½ half life of 1.9 h.

The molecule B29 had a t½ half life of 0.1 h.

The molecule B30 gave a t½ half life of 1 h.

With B31, the t½ half life was 0.3 h.

For the next assay the target is unchanged. In words: iTopia off-rate assay, 37 C; fit R^2 0.95. As to the method:
as §1, §2
With B32, the t½ half life came to 1.4 h.

B33 gave a t½ half life of 0.7 h.

B34: the t½ half life turned out to be 0.7 h.

For a further assay the target is unchanged. In words: iTopia off-rate assay, 37 C; fit R^2 0.85. As to the method: as §1, §2
B35: the t½ half life amounted to 1.4 h.

As to B36, the t½ half life was 0.4 h.

Consider B37, for which the t½ half life amounted to 1.4 h.
